Experimental data taken from US20220153832A1 (PIONYR IMMUNOTHERAPEUTICS, published 2022).
“And” between values parts separate entries of the source, which are not always exact repeats. Identical values can stand only once.

How the values were obtained:
[1] = target: T1, Mouse MARCO, full length, on cells (mouse, UniProt Q60754 1-518); assay: competition with AF488 E. coli binding to muMARCO 293T cells, flow cytometry
T1 construct: whole, on cells; the cell type is named under assay; also called muMARCO; MuMARCO
T1 sequence (looked up): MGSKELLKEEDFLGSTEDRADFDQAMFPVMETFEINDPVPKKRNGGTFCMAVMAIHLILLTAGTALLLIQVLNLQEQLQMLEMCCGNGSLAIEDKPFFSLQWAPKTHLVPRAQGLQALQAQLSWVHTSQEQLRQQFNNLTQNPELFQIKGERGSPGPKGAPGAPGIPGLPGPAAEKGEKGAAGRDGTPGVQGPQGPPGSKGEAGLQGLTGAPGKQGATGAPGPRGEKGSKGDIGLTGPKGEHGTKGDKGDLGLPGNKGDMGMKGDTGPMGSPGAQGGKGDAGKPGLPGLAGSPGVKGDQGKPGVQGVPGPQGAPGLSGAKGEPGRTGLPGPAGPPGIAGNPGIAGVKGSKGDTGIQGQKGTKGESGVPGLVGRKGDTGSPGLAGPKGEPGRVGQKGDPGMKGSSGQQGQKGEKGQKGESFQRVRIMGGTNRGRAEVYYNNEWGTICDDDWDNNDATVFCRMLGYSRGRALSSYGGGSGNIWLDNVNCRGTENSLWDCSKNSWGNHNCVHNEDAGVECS

[2] = target: T1, Mouse MARCO, full length, on cells; assay: flow cytometry, 293T cells expressing mouse MARCO
[3] = target: T2, N-terminally polyhistidine tagged human MARCO ECD (147-520), recombinant (human, UniProt Q9UEW3 147-520); assay: Biacore; sample oxidized with 1 mM AAPH, 6 hrs, 40 C
T2 construct: also called PI-RG-3000; recombinant human MARCO; not shown: N-terminal polyhistidine tag
T2 sequence: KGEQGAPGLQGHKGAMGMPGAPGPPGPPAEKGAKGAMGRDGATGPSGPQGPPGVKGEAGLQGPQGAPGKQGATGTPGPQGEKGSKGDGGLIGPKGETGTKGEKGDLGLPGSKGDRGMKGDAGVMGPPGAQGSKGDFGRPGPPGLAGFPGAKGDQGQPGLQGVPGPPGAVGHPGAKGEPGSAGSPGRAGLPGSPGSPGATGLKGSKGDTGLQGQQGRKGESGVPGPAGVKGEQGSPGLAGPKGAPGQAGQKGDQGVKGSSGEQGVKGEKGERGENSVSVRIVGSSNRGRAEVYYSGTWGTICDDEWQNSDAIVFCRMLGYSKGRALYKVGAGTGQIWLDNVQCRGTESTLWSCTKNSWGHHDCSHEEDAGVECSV
Protocol: (§1) (PBS)+1 mM AAPH for 6 h, 0.5 and 1.5% H₂O₂ in PBS for 24 h, which was compared to a previous experiment at 40° C. (PBS)+1 mM AAPH for 6 h. Post treatment the samples were analyzed by LC-MS/MS which identified the % modification on isolated peptides derived from the antibody after trypsin digest.
(§2) Binding of the stressed samples to recombinant human MARCO was assessed by Biacore.

[4] = target: T2, N-terminally polyhistidine tagged human …; assay: ELISA on hMARCO ECD with 2 mM Ca2+, A450-A620
[5] = target: T3, Human Macrophage Receptor with Collagenous Structure (MARCO), full length, on cells (human, UniProt Q9UEW3 1-520); assay: flow cytometry, cells overexpressing human MARCO; hu (first of hu/cyn)
T3 construct: the cell type is named under assay; also called huMARCO; HuMARCO
T3 sequence: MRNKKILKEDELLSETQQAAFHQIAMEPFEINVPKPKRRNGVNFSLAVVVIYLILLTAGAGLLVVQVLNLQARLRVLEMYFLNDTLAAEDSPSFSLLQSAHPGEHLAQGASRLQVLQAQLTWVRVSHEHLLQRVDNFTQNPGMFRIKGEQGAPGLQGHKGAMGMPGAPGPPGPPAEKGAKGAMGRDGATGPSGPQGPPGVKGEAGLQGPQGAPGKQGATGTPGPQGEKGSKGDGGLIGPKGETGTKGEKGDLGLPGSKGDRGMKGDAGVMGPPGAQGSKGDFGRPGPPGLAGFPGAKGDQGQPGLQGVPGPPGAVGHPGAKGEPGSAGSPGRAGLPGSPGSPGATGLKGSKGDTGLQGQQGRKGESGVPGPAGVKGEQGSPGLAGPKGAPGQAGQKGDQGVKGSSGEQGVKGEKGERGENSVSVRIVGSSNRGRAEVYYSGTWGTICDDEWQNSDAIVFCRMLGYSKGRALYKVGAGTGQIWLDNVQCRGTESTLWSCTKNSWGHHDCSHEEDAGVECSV

[6] = target: T2, N-terminally polyhistidine tagged human …; assay: Biacore; sample oxidized with 0.5% H2O2 (24 hr, RT)
Protocol: as §1, §2

[7] = target: T2, N-terminally polyhistidine tagged human …; assay: ELISA readout A450-A620; the panel names no target, the legend says MARCO expressing cells; transiently made reference antibody
[8] = target: T4, recombinant cynomolgus MARCO protein (cynomolgus, UniProt A0A2K5X0Z2 65-519); assay: KD (nM) Cyno; method not given
T4 construct: Construct not described; also called cyno MARCO; cynoMARCO
T4 sequence: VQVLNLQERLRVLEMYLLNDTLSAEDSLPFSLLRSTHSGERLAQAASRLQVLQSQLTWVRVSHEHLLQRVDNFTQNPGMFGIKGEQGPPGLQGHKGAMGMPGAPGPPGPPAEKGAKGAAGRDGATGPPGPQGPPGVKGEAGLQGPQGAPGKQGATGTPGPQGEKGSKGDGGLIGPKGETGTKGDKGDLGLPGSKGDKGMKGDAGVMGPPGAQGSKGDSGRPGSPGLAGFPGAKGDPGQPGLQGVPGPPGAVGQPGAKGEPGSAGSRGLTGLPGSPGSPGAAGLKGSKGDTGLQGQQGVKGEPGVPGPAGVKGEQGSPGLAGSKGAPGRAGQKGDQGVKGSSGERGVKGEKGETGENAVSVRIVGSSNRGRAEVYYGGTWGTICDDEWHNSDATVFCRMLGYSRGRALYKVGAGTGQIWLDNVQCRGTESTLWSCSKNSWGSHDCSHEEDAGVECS

[9] = target: T2, N-terminally polyhistidine tagged human …; assay: KD (nM) Human; method not given

B1: PI-HX-3061 (antibody, rat IgG2a)
heavy: EVQLVESGGGLVQPGSSLKLSCVASKFTFSNYGMNWIRQAPKKGLEWIALIYYNSNNKYYADSVKGRFTISRDNSKNTLYLEMNSLRSEDTAMYYCAKSLTGGSDYFDSWGQGVMVTVSSAETTAPSVYPLAPGTALKSNSMVTLGCLVKGYFPEPVTVTWNSGALSSGVHTFPAVLQSGLYTLTSSVTVPSSTWPSQTVTCNVAHPASSTKVDKKIVPRNCGGDCKPCICTGSEVSSVFIFPPKPKDVLTITLTPKVTCVVVDISQDDPEVHFSWFVDDVEVHTAQTRPPEEQFNSTFRSVSELPILHQDWLNGRTFRCKVTSAAFPSPIEKTISKPEGRTQVPHVYTMSPTKEEMTQNEVSITCMVKGFYPPDIYVEWQMNGQPQENYKNTPPTMDTDGSYFLYSKLNVKKEKWQQGNTFTCSVLHEGLHNHHTEKSLSHSP
light: DVQMTQSPSYLAASPGESVSISCKASKSIGTFLAWYQEKPEKTNKLLIYSGSTLQSGTPSRFSGSGSGTDFTLTIRNLEPEDFAVYYCQQHDEYPFTFGSGTKLEIKRADAAPTVSIFPPSTEQLATGGASVVCLMNNFYPRDISVKWKIDGTERRDGVLDSVTDQDSKDSTYSMSSTLSLTKADYESHNLYTCEVVHKTSSSPVVKSFNRNEC
notes: Parental rat hybridoma, rat IgG2a; cross reactive with human and mouse MARCO
For B1, the EC50 [1] was 0.85 nM.

B2: PI-HX-3031 (antibody)
heavy: QVQLKESGPGLVQPSQTLSLTCTVSGFSLTSYHVSWVRQPPGKGLEWMGAIWTGGSIAYNSLLKSRLSISRDTSKSQVFLKMNSLQTEDTATYYCARDLSDYYSSYTSFDYWGQGVMVTVSTAETTAPSVYPLAPGTALKSNSMVTLGCLVKGYFPEPVTVTWNSGALSSGVHTFPAVLQSGLYTLTSSVTVPSSTWSSQAVTCNVAHPASSTKVDKKIVPRECNPCGCTGSEVSSVFIFPPKTKDVLTITLTPKVTCVVVDISQNDPEVRFSWFIDDVEVHTAQTHAPEKQSNSTLRSVSELPIVHRDWLNGKTFKCKVNSGAFPAPIEKSISKPEGTPRGPQVYTMAPPKEEMTQSQVSITCMVKGFYPPDIYTEWKMNGQPQENYKNTPPTMDTDGSYFLYSKLNVKKETWQQGNTFTCSVLHEGLHNHHTEKSLSHSP
light: DIQMTQSPASLSTSLGETVSIECLASEGISNDLAWYQQKSGKSPQLLIYAASRLQDGVPSRFSGSGSGTRYSLKISGMQPEDEADYFCQQSYKYPLTFGSGTKLEIKRADAAPTVSIFPPSTEQLATGGASVVCLMNNFYPRDISVKWKIDGTERRDGVLDSVTDQDSKDSTYSMSSTLSLTKADYESHNLYTCEVVHKTSSSPVVKSFNRNEC
notes: Parental rat hybridoma, rat IgG2a
B2: no binding [2].

B3: PI-3015-AB (antibody, human IgG1, kappa)
heavy: not shown
light: DIQMTQSPSSLSASVGDRVTITCRASEGISNDLAWYQQKPGKAPKLLIYAASRLQSGVPSRFSGSGSGTDYTLTISSMQPEDFATYYCQQSYKYPLTFGQGTKLEIKRTVAAPSVFIFPPSDEQLKSGTASVVCLLNNFYPREAKVQWKVDNALQSGNSQESVTEQDSKDSTYSLSSTLTLSKADYEKHKVYACEVTHQGLSSPVTKSFNRGEC
In the case of B3, the Kd [3] is reported as 1.1 nM, the “EC50 (read off the curve)” value [4] is reported as about 1 nM and the EC50 [5] is reported as 0.798 nM. The Kd [6] was 1.05 nM and the “EC50 (read off the curve)” value [7] was about 0.2 nM.

B4: PI-3010-AB (antibody, human IgG1, kappa)
heavy: not shown
light: DIQMTQSPASLSTSLGETVSIECLASEGISNDLAWYQQKSGKSPQLLIYAASRLQDGVPSRFSGSGSGTRYSLKISGMQPEDEADYFCQQSYKYPLTFGSGTKLEIKRTVAAPSVFIFPPSDEQLKSGTASVVCLLNNFYPREAKVQWKVDNALQSGNSQESVTEQDSKDSTYSLSSTLTLSKADYEKHKVYACEVTHQGLSSPVTKSFNRGEC
With B4 the Kd [8] was 0.26 nM and the Kd [9] was 0.43 nM and 0.64 nM.
